The record followed here is US20020165156A1 (Biogen, published 2002).

The test concerns the target T1, soluble flag-hBAFF (amino acids L83-L285) (human, UniProt Q9Y275 83-285).
T1 construct: range 83-285; also called FLAG-tagged human BAFF; not shown: FLAG tag
Kind of test: plate assay, 0.5 ug/ml FLAG-hBAFF on pJST535-transfected 293EBNA cells, anti-FLAG M2 and alkaline phosphatase / fast red. As to the method: Full-length human BAFF-R was generated from BJAB polyA+RNA using the SuperscriptII preamplification kit (Life Technologies) to generate the cDNA template and amplified by Pfu1 using primers complementary to the 5′ and 3′ coding sequences of BAFF-R. The PCR product was cloned into CH269, a derivative of pCEP4 (Invitrogen). The resultant clone was termed pJST535. Human embryonic kidney cells containing the EBNA-1 gene (293EBNA) were seeded into 6 well plates coated with fibronectin and transfected by lipofectamine (Life Technologies) with either pJST535 at various dilutions or CH269 as a background control. At 48 hrs post transfection, transfected cells were assayed for their ability to bind soluble flag-hBAFF(amino acids L83-L285) as follows. All incubations were at room temperature. Conditioned media was aspirated from the wells and the cells washed with BHA buffer (20 mM HEPES pH7.0, 0.5mg/ml BSA, 0.1% NaN3) and incubated with 0.5 ug/ml FLAG-hBAFF diluted in PBS containing 1 mM MgCl2, 1 mM CaCl2 and 0.1% NaN3. After an 1 hr. incubation, the BAFF solution was removed and the cells were washed with BHA. The cells were next incubated for 30 min. in a PBS solution containing 1 ug/ml of the anti-FLAG monoclonal antibody, M2 (Sigma). This solution was aspirated and the cells were washed with BHA. […]

T1 sequence (Q9Y275 83-285 limits assumed): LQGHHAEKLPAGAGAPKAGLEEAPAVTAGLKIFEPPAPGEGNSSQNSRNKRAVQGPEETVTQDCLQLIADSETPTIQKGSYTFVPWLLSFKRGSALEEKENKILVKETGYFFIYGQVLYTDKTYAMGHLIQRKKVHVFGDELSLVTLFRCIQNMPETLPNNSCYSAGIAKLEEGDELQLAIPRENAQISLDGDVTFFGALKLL

B1: full-length human BAFF-R (BCMA) expressed on 293EBNA cells transfected with pJST535 (receptor)
chain: MLQMAGQCSQNEYFDSLLHACIPCQLRCSSNTPPLTCQRYCNASVTNSVKGTNAILWTCLGLSLIISLAVFVLMFLLRKISSEPLKDEFKNTGSGLLGMANIDLEKSRTGDEIILPRGLEYTVEECTCEDCIKSKPKVDSDHCFPLPAMEEGATILVTTKTNDYCKSLPAALSATEIEKSISAR
Consider B1, for which the binding result was “binds”.
